PMC3855536

Substrate: C=C(O[C@@H]1C=C(C(=O)O)C=C[C@H]1O)C(=O)O
Test: steady-state kinetics
Format: biochemical, Thermus thermophilus
Conditions: dehydration of chorismate to 12

B1: MqnA (TTHA0803) (Thermus thermophilus HB8) (protein)
chain: MRPYVLGLPRYANVAPLHHFLRLEGFRVLHAVPAELNRLLLSGEVGLSLVSSYFYLKHQDSLGLLPDFSVAVLGRVYSVNLFHKGALPHLARVALTTESATSVALLKLLLKEAGAGPRYERREGGLELLSAYDGVLLIGDRAIKAYAALLPEVPETPHALPTRFGEVEVADLSTLWFQRTHLPFVFAVWAYRRENPPPKALVQALREARREGLGRLREVAEAEARRLGVHPLLLQHYLWNFRYHLEEPDRLGLKAFAEALGLPFAPMFYPE
In the case of B1, the Km is reported as 161.6 ± 7.1 µM and the kcat is reported as 1.27 ± .02 s⁻¹.
